Measured values: publication PMC3954644 (Biochemistry, 2014)

B1: Put2p mutant W193A, residues 23-575, His tag removed (enzyme, S. cerevisiae, UniProt P07275 23-575, looked up)
chain: KPPKHIRNEPVKPFRNIDLKDWDLLRASLMKFKSSSLEVPLVINGERIYDNNERALFPQTNPANHQQVLANVTQATEKDVMNAVKAAKDAKKDWYNLPFYDRSAIFLKAADLISTKYRYDMLAATMLGQGKNVYQAEIDCITELSDFFRYYVKYASDLYAQQPVESADGTANKAEYRPLEGFVYAVSPFNFTAIAANLIGAPALMGNTVVWKPSQTAALSNYLLMTVLEEAGLPKGVINFIPGDPVQVTDQVLADKDFGALHFTGSTNVFKSLYGKIQSGVVEGKYRDYPRIIGETGGKNFHLVHPSANISHAVLSTIRGTFEFQGQKCSAASRLYLPESKSEEFLSDMFGILQSQNVVPMNTSASPISGGNLRGFMGPVIHEQSFDKLVKVIEDAKKDPELEILYGGQYDKSQGWFVGPTVIKAKRPDHPYMSTEFFGPILTVYEYPDTEFNEICDIIDNTSQYALTGAIFAKDRKAIEYADEKLKFSAGNFYINDKCTGAVVSQQWFGGARMSGTDDKAGGPNILSRFVSIRNTKENFYELTDFKYPSNYE
B2: human Δ1-pyrroline-5-carboxylate dehydrogenase (HsP5CDH, ALDH4A1), residues 18-563, tag-free (enzyme, UniProt P30038 18-563, looked up)
chain: TGAGLRWKHTSSLKVANEPVLAFTQGSPERDALQKALKDLKGRMEAIPCVVGDEEVWTSDVQYQVSPFNHGHKVAKFCYADKSLLNKAIEAALAARKEWDLKPIADRAQIFLKAADMLSGPRRAEILAKTMVGQGKTVIQAEIDAAAELIDFFRFNAKYAVELEGQQPISVPPSTNSTVYRGLEGFVAAISPFNFTAIGGNLAGAPALMGNVVLWKPSDTAMLASYAVYRILREAGLPPNIIQFVPADGPLFGDTVTSSEHLCGINFTGSVPTFKHLWKQVAQNLDRFHTFPRLAGECGGKNFHFVHRSADVESVVSGTLRSAFEYGGQKCSACSRLYVPHSLWPQIKGRLLEEHSRIKVGDPAEDFGTFFSAVIDAKSFARIKKWLEHARSSPSLTILAGGKCDDSVGYFVEPCIVESKDPQEPIMKEEIFGPVLSVYVYPDDKYKETLQLVDSTTSYGLTGAVFSQDKDVVQEATKVLRNAAGNFYINDKSTGSIVGQQPFGGARASGTNDKPGGPHYILRWTSPQVIKETHKPLGDWSYAYMQ

Tests used:
AUC = biological target: the molecule itself; assay: AUC
crystal structure = biological target: the molecule itself; assay: crystal structure

Row | Protein | stoichiometry N (AUC) | stoichiometry N (crystal structure)
1 | B1 | 2 | –
2 | B2 | – | 2
